This is an account of results in patent US20200231671A1 (E R SQUIBB AND SONS L L C, published 2020).

Where no end group is shown, it is not given here.

Holding throughout (test): peptide scan ELISA
The target in test [1] is T1, LAG-3 extra loop scan peptide PAAAPGHPLAPG (human, also: conjugated to biotin, site not given here).
T1 construct: 12-mer overlapping scan peptide of the extra loop
T1 peptide: PAAAPGHPLAPG
As for the experimental part:
(§1) In the LAG-3 protein, the immunoglobulin-like first domain of the extracellular region contains an exposed “extra loop” having the amino acid sequence: […] (SEQ ID NO: 79). To examine the binding of 25E3, 25F7, 8B7 and 26H10 to this region of LAG-3, and map the epitope bound by each antibody, a peptide scan experiment was performed across this region. A series of 10 overlapping peptides that scanned across the full length of the extra loop sequence were prepared and conjugated to biotin. For ELISA analysis, microtiter plates pre-coated with streptavidin (Sigma-Aldrich, Cat # M5432) were used to capture the biotinylated loop peptide-conjugates applied in a 100 μl volume at a concentration of 2 μg/mL and incubated 18 hours at 4° C., after which the plates were washed 3 times and blocked at room temperature for 1 hour with blocking buffer (1×PBS+10% FBS). Next, human anti-LAG-3 antibodies serially diluted 3-fold in blocking buffer from 10 μg/mL were applied and the plates were incubated at room temperature for 2 hours and then washed three times. To detect bound human antibody a HRP-conjugated goat anti-human kappa light chain antibody (Bethyl Laboratories, Cat # A80-115P) was diluted to 1 μg/mL in blocking buffer and applied to assay wells for 1 hour followed by three washes and application of TMB substrate (eBioscience, Cat #00-4201-56). Optical density readings at 650 nm wavelength were made on a Spectramax 340PC spectrophotometer ([…].).

The target in test [2] is T2, LAG-3 extra loop scan peptide LAPGPHPAAPSS (human, also: conjugated to biotin, site not given here).
T2 construct: 12-mer overlapping scan peptide of the extra loop
T2 peptide: LAPGPHPAAPSS
On the procedure:
as §1

The target in test [3] is T3, LAG-3 extra loop scan peptide APSSWGPRPRRY (human, also: conjugated to biotin, site not given here).
T3 construct: 12-mer overlapping scan peptide of the extra loop
T3 peptide: APSSWGPRPRRY
As for the experimental part: as §1

In test [4] the target is T4, LAG-3 extra loop scan peptide GPPAAAPGHPLA (human, also: conjugated to biotin, site not given here).
T4 construct: 12-mer overlapping scan peptide of the extra loop
T4 peptide: GPPAAAPGHPLA
On the procedure:
as §1

Test [5] addresses T5, LAG-3 extra loop scan peptide HPLAPGPHPAAP (human, also: conjugated to biotin, site not given here).
T5 construct: 12-mer overlapping scan peptide of the extra loop
T5 peptide: HPLAPGPHPAAP
As for the experimental part: as §1

B1: 26H10 human monoclonal antibody (antibody, IgG1, V domains shown)
VH: QVQLVESGGGVVQPGRSLRLSCAASGFTFSSYGMHWVRQAPGKGLEWVAVIWYDGSNKYYADSVKGRFTISRDNSKNTLYLQMNSLRAEDTAVYYCAREWAVASWDYGMDVWGQGTTVTVSS
VL: not shown
notes: also called 26H10-FITC
As to B1, the binding result in test [1], in test [2], in test [3], in test [4] and in test [5] was “no binding (tested: 10 µg/mL)” each time.

B2: 25E3 human monoclonal antibody (antibody, IgG1, V domains shown)
VH: EVQLVESGGGVVRPGGSLRLSCAASGFTFDDYGMSWVRQAPGKGLEWVSGINWNGGSTYYADSVKGRFTISGDNAKNSLYLQMNSLRAEDTALYYCTTGGYWGQGTLVTVSS
VL: AIQLTQSPSSLSASVGDRVTITCRASQGIRSALAWYQQKPGKAPKLLIYDASSLESGVPSRFSGSGSGTDFTLTISSLQPEDFATYYCQQFNSYPYTFGQGTKLEIK
As to B2, in test [1], the binding result is recorded as “binds”.
